From article PMC8964982

Biological target: discoidin domain receptor 1 (DDR1) (human (endogenous in primary human umbilical artery SMCs)) (UniProt Q08345)
Assay: atomic force microscopy

discoidin domain receptor 1 (DDR1) (human (endogenous in primary human umbilical artery SMCs)), sequence (Q08345 19-913): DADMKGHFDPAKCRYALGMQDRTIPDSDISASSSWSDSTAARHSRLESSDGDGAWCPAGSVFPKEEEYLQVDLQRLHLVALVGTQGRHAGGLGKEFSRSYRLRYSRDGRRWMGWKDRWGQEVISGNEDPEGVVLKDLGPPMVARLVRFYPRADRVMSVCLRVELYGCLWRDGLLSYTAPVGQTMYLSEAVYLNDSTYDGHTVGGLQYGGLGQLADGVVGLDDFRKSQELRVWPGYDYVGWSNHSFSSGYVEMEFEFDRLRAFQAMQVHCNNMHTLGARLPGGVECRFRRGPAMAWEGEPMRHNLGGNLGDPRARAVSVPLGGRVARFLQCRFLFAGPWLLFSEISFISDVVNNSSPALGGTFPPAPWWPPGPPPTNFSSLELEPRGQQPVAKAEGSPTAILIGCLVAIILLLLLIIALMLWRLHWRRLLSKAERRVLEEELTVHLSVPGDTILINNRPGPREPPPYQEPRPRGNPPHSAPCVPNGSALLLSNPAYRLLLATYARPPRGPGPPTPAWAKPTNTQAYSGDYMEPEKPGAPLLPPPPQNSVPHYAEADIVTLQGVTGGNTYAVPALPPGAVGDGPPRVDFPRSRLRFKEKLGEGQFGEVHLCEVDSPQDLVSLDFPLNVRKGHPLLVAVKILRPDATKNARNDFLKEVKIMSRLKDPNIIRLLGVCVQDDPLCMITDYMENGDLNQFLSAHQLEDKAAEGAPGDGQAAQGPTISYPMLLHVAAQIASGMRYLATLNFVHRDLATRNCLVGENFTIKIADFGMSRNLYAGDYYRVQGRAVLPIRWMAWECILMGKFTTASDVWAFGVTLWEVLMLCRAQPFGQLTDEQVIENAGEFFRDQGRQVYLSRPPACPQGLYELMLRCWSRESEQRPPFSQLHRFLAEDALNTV
Collagen type I (Corning), P02454 152-1207; P02466 86-1125 (ligand), sequence (P02454 152-1207): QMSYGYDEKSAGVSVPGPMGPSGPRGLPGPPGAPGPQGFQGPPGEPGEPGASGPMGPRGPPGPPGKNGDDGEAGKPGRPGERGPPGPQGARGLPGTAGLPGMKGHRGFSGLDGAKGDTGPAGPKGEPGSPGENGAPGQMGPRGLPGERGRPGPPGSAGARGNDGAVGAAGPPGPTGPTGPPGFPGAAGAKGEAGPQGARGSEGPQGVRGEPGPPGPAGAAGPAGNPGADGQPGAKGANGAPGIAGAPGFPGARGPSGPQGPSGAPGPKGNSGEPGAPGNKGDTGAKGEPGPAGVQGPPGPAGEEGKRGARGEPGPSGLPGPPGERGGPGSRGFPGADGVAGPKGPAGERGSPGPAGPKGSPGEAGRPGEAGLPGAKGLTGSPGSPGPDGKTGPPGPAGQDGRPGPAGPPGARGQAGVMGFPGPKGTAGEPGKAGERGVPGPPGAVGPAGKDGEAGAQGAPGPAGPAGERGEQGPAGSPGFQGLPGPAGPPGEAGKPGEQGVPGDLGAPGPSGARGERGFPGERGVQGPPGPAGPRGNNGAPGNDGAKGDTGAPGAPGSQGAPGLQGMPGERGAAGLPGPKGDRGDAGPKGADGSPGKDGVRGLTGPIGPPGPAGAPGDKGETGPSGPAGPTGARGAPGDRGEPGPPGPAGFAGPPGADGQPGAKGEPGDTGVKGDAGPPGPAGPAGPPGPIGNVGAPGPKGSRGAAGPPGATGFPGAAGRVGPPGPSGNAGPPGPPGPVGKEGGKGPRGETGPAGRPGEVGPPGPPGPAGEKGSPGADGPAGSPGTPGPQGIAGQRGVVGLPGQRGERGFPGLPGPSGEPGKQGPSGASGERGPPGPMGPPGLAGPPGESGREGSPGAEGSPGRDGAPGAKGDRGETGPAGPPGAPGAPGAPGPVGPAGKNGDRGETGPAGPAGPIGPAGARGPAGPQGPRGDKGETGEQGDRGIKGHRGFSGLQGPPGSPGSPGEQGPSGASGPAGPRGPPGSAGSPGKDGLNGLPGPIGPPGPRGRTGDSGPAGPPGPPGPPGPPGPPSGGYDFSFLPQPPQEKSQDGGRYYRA
Collagen type I (Corning), P02454 152-1207; P02466 86-1125 (ligand), sequence (P02466 86-1125): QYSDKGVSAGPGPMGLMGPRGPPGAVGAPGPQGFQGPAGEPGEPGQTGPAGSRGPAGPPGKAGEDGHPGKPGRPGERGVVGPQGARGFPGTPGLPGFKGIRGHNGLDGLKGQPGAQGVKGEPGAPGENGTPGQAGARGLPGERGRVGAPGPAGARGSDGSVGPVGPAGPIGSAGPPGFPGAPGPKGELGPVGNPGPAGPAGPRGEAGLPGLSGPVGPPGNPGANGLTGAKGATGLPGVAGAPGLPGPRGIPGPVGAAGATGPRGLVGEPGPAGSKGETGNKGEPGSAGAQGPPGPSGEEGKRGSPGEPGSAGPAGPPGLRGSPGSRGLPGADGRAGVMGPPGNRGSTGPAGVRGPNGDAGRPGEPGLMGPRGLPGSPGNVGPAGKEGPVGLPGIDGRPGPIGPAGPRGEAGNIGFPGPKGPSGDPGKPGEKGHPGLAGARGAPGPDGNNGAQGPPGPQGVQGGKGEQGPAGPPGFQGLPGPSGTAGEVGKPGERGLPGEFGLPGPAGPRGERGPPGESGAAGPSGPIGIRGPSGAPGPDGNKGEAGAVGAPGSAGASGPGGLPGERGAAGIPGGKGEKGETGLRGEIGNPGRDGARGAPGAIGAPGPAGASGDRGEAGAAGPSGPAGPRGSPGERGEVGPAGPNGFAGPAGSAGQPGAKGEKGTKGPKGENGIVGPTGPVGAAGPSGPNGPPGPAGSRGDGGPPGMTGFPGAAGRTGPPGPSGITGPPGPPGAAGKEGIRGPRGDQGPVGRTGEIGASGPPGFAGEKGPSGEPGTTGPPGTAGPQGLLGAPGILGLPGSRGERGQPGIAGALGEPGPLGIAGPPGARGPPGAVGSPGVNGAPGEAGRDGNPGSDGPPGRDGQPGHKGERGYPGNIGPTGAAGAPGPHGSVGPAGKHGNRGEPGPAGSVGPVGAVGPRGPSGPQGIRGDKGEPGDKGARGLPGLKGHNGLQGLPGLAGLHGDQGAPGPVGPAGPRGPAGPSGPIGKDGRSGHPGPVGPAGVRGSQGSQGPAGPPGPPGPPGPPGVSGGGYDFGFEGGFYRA

Collagen type I (Corning), P02454 152-1207; P02466 86-1125 (ligand)
adhesion probability (cells on soft gels): 18.3%
adhesion probability (cells on stiff gels): 32.4%
